The nanobody polyreactivity screen of Harvey et al. (2022)

Test: yeast display, Sf9 membrane polyspecificity reagent, FACS + sequencing; frameworks hold sequencing errors
Outline: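 Nanobodies came from a synthetic yeast display library in Saccharomyces cerevisiae BJ5465, induced with galactose for 36–48 hours and stained for 1 hour at 4 °C with 10% biotinylated, detergent-solubilized Sf9 membrane reagent. Cells were enriched on streptavidin microbeads and then FACS-sorted, with low and high (top ~1%) gates set on anti-HA fluorescence for expression and streptavidin fluorescence for reagent binding. Each polyreactivity label reflects the gate a clone came from. Genes were amplified by colony PCR, sequenced by MiSeq 2 × 250 and filtered by CDR length.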

QVQLVESGGGLVQAGGSLRLSCAASGSTFYRNAMGWYRQAPGKERELVAAISRRSGTTYYADSVKGRFTISRDNAKNTVYLQMNSLKPEDTSVYYCATVRGGYDYWGQGTQVTVSS
polyreactivity (PSR sort gate): high polyreactivity

QVQLVESGGGLVQAGGSLRLSCAASGRIIKRYAMGWYRQAPGKERELVAAISASGSSTYYADSVKGRFTISRDNAKNTVYLQMNSLKPEDTAVYYCAAWAYSPSASYDYWGQGTQVTVSS
polyreactivity (PSR sort gate): high polyreactivity

QVQLVESGGGLVQAGGSLRLSCAASGLIFNTYAMGWYRQAPGKERELVAAITDGGGTNYADSVKGRFTISRDNAKNTVYLQMNSLKPEDTAVYYCAARLASWPLTYDFQWYEYWVQGTQVTVSS
polyreactivity (PSR sort gate): low polyreactivity

QVQLVESGGGLVQAGGSLRLSCAASGRIFVGYAMGWYRQAPGKERELVAVISGRGGSTYYADSVKGRFTISRDNAKNTVYLQMNSLKPEDTAVYYCATDYYGPDYPLDYWGQGTQVTVSS
polyreactivity (PSR sort gate): low polyreactivity

QVQLVESGGGLVQAGGSLRLSCAASGSTFYYYVMGWYRQAPGKERELVATITSGGSTNYADSVKGRFTISRDNAKNTVYLQMNSLKPEDTAVYYCAADWYLIIARSRPTLDYDYWGQGTQVTVSS
polyreactivity (PSR sort gate): low polyreactivity

QVQLVESGGGLVQAGGSLRLSCAASGRIFNYYAMGWYRQAPGKERELVAAISSGGSTYYADSVKGRFTISRDNAKNTVYLQMNSLKPEDTAVYYCAAAYGDYGYWGQGTQVTVSS
polyreactivity (PSR sort gate): high polyreactivity

QVQLVDSGGGLVQAGGSLRLSCAASGFNFVFNAMGWYRQAPGKERELVAAINGGDITNYADSVKGRFTISRDNAKNTVYLQMNSLKPEDTAVYYCAADGEYSLWTGYDYDYWGQGTQVTVSS
polyreactivity (PSR sort gate): low polyreactivity

QVQLVESGGGLVQAGGSLRLSCAASGFIFSYYAMGWYRPAPGKERELVAAITDSGGSTYYADSVKGRFTISRDNAKNSVYLQMNSLKPEYTAVYYCATEIEQTAEYDYLGQGTQVTVSS
polyreactivity (PSR sort gate): low polyreactivity

QVQLVESGGGLVQAGGSLRLSCAASGSIFPTNAMGWYRQAPGKERELVAAITSGGGTNYADSVMGRFTISRDNAKNTVYLQMNSLKTEDTAVYYCAADRYVEYGYWGQGTQVTVSS
polyreactivity (PSR sort gate): low polyreactivity

QVQLVESGGGLVQAGGSLRLICAASGSTFSSNAMAWFRQAPGKERELVAAIDRGGSTNYADSVKGRFTISRDNAKNTVYFQMNCLKAEDTAVYYCKAERVTYDTGRAVLPGGYWGQGTQVTVSS
polyreactivity (PSR sort gate): low polyreactivity

QVQLVESGGGLVQAGGSLRLSCAASGSIFVRNTMGWYRQAPGKERELVATISSGGRTYYADSVKGRFTISRDNAKNTVYLQMNSLKPEETAVYYCAAGYSYAQYSYPFLSFAFGYWGQGTQVTVSS
polyreactivity (PSR sort gate): high polyreactivity

QVQHVESGGVLVQAGGSLRLSCAASGRTFISNVMGWYRPAPGKERELVAGITGGGNTYYADSVKGRFTISRDNAKNTVYLQMNSLKPEDTAVYYCAVRYPSYGLSYVRYGYWGQGTQLTVSS
polyreactivity (PSR sort gate): high polyreactivity

QVQLVESGGGLDQAGGSLRLSCAASGLTFYSYAMGWYRQAPGKERELVAAISSSGGNTYYADSVKGRFTISRDNAKNTVYLQMNSLKPEDTAVYYCAARYTAYIQYGMGYWGQGTQVTVSS
polyreactivity (PSR sort gate): high polyreactivity

QVQLQESGGGLVQAGGSLSLSCAASGSISAVGAMGWYRKAPGKERELAASVNWCTNTNYADSVKGRFTISRDNAKNTLYLQMNSLKPEDTAVYYCAVLPDWETRHDYWGHGTQVTVSS
polyreactivity (PSR sort gate): low polyreactivity

QVQLVESGGGLVQAGGSLRLSCAAYGSTFGYNAMGWYRQAPGKESELVAAISSTSGSTYYADSVKGRFTISRDNAKNTVYLQMNSLKPEDTAVYYCAADDGDTNAYYFWKPYYYWGQGTQVTVSS
polyreactivity (PSR sort gate): low polyreactivity

QVQLVESGGGLVQAGGSLRLSCAASGSTFYPYAMGWYRQAPGKERELVAAINLRADSTNYADSVKGRFTISRDNAKNTVYLQMNSLKPEDTAVYYCAARVSYRSGRRPLWAYNSWGQGTQVTVSS
polyreactivity (PSR sort gate): high polyreactivity

QVQLVESGGGLVQAGGSLRLSCAASGSIFTYYAMGWYRQAPGKEMELVARIDWNGGSTRYADSVKGRFTISRDNAKNTVYLQMNSLKPEYTAVYYCAADWDYAPYFDPDLLDYWGQGTQVTVSS
polyreactivity (PSR sort gate): low polyreactivity

QVQLEESGGGLVQAGGSLRLSCAASGIIFGRYAMGWYRQAPGKQRELVAAITSGGSTSYADSVKGRFTISRDNAKNTVYLQMNSLKPEDTAVYYCAVVFVWGWPGYYWGQGTQVTVSS
polyreactivity (PSR sort gate): high polyreactivity

QVQIVESGGGLVQAGGSLRLSCAASGGIYTRYVMGWYRQAPGTERELVAAISSGGSTYYADSVKGRFTISRDNAKNTDYFQMNSLKPEDTAVYYCAAGYYIYLIRKFIYDYWGQGSQVTVSS
polyreactivity (PSR sort gate): high polyreactivity

QVQLVESGGGLVQAGGSLRLSCAASGSIFRIYVMGWYRQAPGKERELVAAINSGGRTKYADSVKGRFTISRDNAKNTVYLLMNSLKPDDTAVYYCAAAFLYRKGVSSLYDSWGQGTQVTVSS
polyreactivity (PSR sort gate): high polyreactivity

QVQLVESGGGLVQAGGSLRLSCAASGRTFDTNAMGWYRQAPGKERELVAVITARGGNTSYADSVKGRFTISRENAKNTVSLQMNSLKPEDTAVYYCAARVYRAPWTYEEGNYWGQGTQVTVSS
polyreactivity (PSR sort gate): low polyreactivity

QVQLVESAGGLVQAGGSLRLSCAASGSTFDLYAMGWYRQAPGKEREFVAAISRSGGSTYYADSVKGRFTISRDNAKNTVYLHMNSLKPEDTAVYYSNARWPPGVSRGGMGYWGQGTQVTVST
polyreactivity (PSR sort gate): high polyreactivity

QVQLVESGGGLVQAGGSLRLICAASGRIFNRNAMGWYRQAPGKERELVASISSGGRTNYADSVKGRFTISRDNAKNTVYLQMNSLKPEDTAVYYCAAKSPRILLDYWGQGTQVTVSS
polyreactivity (PSR sort gate): low polyreactivity

QVQLVESGGGLVQAGGSLRLSCAASGFIFKVYAMGWYRQAPGKERELVDAISRSGGSTYYADSVKGRFTISRDHAKNTVYLQMKSLKPEDTAVYYCAADYDVTGDSDYWGQGTQVTVSS
polyreactivity (PSR sort gate): low polyreactivity

QVQLVESGGGLVQAGGSLRLSCAASGRIFGSNTMGWFRQAPGKERELVAAITGDDSTYADSVKGRFTISRDNAKNTVYLQMNSLKPVDTAVYYCAVVWVWDVWFLVYYWGQGTQVTVSS
polyreactivity (PSR sort gate): low polyreactivity

QVQLVESGGRLVQAGGSLRLSCAASGRIFAQYAMGWYRQAPGKERELVAAISGRGRTTYYADSVKGRFTISRDNEKNNVYLQMNSVKPEDTAAYYCAAKSTYVAGDYSGQGTQVTVSS
polyreactivity (PSR sort gate): high polyreactivity

QVQLVESAGGLVQAGGSLRLSCAASGSTFGENAMGWYRQAPGKERELVAAISDSGGDTYYADSVKGRFTISRDNAKYTVYLQMNSLKPEDTAVYYCAADRYGYWYAYYSWGQGTLVTVSS
polyreactivity (PSR sort gate): low polyreactivity

QVHLVESGGGLVQAGGSLRLSCAASGGIFDYYAMGWYRQAPGKERELVATISRGGSTYYADSVKGRFTISRDNAKNTVYLQMNSLKPEDTAVYYCAARQTRYWYRAWFVEHDYWGQGTKVTVSS
polyreactivity (PSR sort gate): high polyreactivity

QVQLVESGGGLVQAGGSLRLSCAASGLTFPSNAMGWYRQAPGKERELVAAISKRGGRTYYADSVKGRFTISRDNAKNTVYLQINSLKPEDTAVYYCAAVPWYVSHDFDYWGQGTQVTVSS
polyreactivity (PSR sort gate): high polyreactivity

QVQLVESGGGLVQAGGSLRLSCAASGSIFFSNAMGWYRQAPGKERELVASISRDVSTNYADSVKGRFTISRDNAKNTVYLQMTSLKPEDTAVYYCAKRYYRYYYITYNGSHYGYWGQGTQVTVSS
polyreactivity (PSR sort gate): low polyreactivity

QVQLVESGGGLVQAGGSLRLSCAASGIFFNYMGWYRQAPGKEREFVAAIDYRGGNTFYADSVKGRFTISRDNAKNTVYLQMNSLKPEDTAVYYCARAFGQRRYDYWGQGTQVTVSS
polyreactivity (PSR sort gate): high polyreactivity

QVQLVESGGGLVQAGGSLRLRWAASGFIFGYYPMGWYRPAPGKERELVAAINSSGGSTYYADSVKGRFTISRDNAKNTVYLQMNSLKPADTAVYYCAARAYQRGIYWGQGTQVTLSS
polyreactivity (PSR sort gate): high polyreactivity

QVQLVESGGGLVQAGGSLRLSCAASGRTFTPYAMGWYRQAPGKERELVAAITSNSGITSYADSVKGRFTISRDNAKNTVYLQMNSLKPEDTAVYYCNADYYRYFRYYYWGQGTQVTVSS
polyreactivity (PSR sort gate): high polyreactivity

QVQLVESGGGLVQAGGSLRLSCAASGFIFYTYAMGWYRQAPGKERELVAAISWRGGRTYYADSVKGRFTISRDNAKNTVYLQMNSLKPEDTAVYYCNAVTRSGEYDYWGQGTQVTVSS
polyreactivity (PSR sort gate): high polyreactivity

QVQLVESGGCLVQAGGSLRLSCAASGRIIDFYTLGWYRQAPGKERELVAGINGSGASTYYADSVKGRFTISRDNAKNTVYLQMNSLKPEDTAVYYCAKDPGYYYDYDYWGQGTQVTVSS
polyreactivity (PSR sort gate): low polyreactivity

QVQLVESGGGLVQAGGSLRLSCAASGFIFDNNAMGWYRQAPGKERELVADISESGGSTYYADSVKGRFTISRDNAKNTVYLQMNSLKPEDTAVYYCNADIESWYCEFDYWGQGTQVTVSS
polyreactivity (PSR sort gate): low polyreactivity

QVQLVDSGGGLVQAGGSLRLSCAASGSIFWDYAMGWYRQAPGIERELVASIPSGGSTYYADSVKGRFTISRDNAKKTVYLQMNRLKPEDTAVYYCAADGHTRHWGQTGRGAMYYWGQGTQVTVSS
polyreactivity (PSR sort gate): low polyreactivity

QVQLVESGGGLVQAGGSLRLSCAASGSILFTNAMGWYRQAPGKERELVAAISSGGSTYYADSVKGRFTISRDNAKNTVYLQMNSLKPEDTAVYYCAADQLNVGREYVEYDFWGQGTQVTVSS
polyreactivity (PSR sort gate): low polyreactivity

QVHLVESGGGLVNAGGSLRLSCAASGRIFSGYAMGWYRQAPGKERELVAAITSVGSTNNADSVKGRFTISRDNAKNTVYLQMNSLKPEDTAVYYCAARGSYARGYDYWGQGTQVTVSS
polyreactivity (PSR sort gate): high polyreactivity

QVQLVESGGGLVQAGGSLRLSCAASGRTFVRNAMGWYRQAPGKERELVAAISSSGGSTYYADSVKGRFTISRDNAKNTVYLQMNSLKPEDTAVYYCAARSAFYYTYRSHYGWGMDYWGQGTQVTVSS
polyreactivity (PSR sort gate): high polyreactivity

QVQLVESGGGLVQAGGSLRLSCAASGYILGGNAMGWYRQAHGKERELDAVIRKSGGSTYADSVKGRFTISRDNAKNSVYLQMNSLKPEDTAVYYCNADTLAGVYFYQSDYWGQGTQVTVSS
polyreactivity (PSR sort gate): low polyreactivity

QVQLVESGGGLVQAGCSLRLSCAASGIIFRSYAMGWYRQAPGKERELVAAITRSGGSTYADSVKGRFTISRDNAKNTVYLQMNSLKPEDTAVYYCAADRYSGWDYRRDYWGHGTQVTVSS
polyreactivity (PSR sort gate): low polyreactivity

QLQLVESGGGLVQAGGSLRLSCAASGSTFAANAMGRYRQAPGKERELVAASTSSGGSTYYADSVKGRFTISRDNAQNTVYLQMNSLKPEDTAVYYCAADRWYITLSIDATISYDYWGQGTQVTVSS
polyreactivity (PSR sort gate): low polyreactivity
